Test results taken from US20060204496A1 (published 2006).
Positions count from the first letter of the chain named.

T1: AR2FLAG (solubilized receptor: extracellular domain of human AR2 with FLAG tag at the C terminus), … (human, UniProt P48551 27-243, biotin-labeled (NHS-PEO4-Biotin))
T1 construct: extracellular domain; captured on streptavidin plates for the phage ELISA; also called biotin-labeled AR2FLAG; AR2 chain of type-I interferon receptor; not shown: FLAG tag at the C terminus
T1 sequence (looked up): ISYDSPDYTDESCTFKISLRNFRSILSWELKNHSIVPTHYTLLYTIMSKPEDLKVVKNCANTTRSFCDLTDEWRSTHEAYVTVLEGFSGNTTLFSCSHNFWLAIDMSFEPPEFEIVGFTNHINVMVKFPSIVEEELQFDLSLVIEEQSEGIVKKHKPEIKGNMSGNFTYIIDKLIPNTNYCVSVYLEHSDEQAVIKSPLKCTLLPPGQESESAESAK

T2: AR1FLAG (solubilized receptor: extracellular domain of human AR1 with FLAG tag at the C terminus), … (human, UniProt P17181 28-436, biotin-labeled (NHS-PEO4-Biotin))
T2 construct: extracellular domain; captured on streptavidin plates for the phage ELISA; also called biotin-labeled AR1FLAG; AR1 chain of type-I interferon receptor; not shown: FLAG tag at the C terminus
T2 sequence (looked up): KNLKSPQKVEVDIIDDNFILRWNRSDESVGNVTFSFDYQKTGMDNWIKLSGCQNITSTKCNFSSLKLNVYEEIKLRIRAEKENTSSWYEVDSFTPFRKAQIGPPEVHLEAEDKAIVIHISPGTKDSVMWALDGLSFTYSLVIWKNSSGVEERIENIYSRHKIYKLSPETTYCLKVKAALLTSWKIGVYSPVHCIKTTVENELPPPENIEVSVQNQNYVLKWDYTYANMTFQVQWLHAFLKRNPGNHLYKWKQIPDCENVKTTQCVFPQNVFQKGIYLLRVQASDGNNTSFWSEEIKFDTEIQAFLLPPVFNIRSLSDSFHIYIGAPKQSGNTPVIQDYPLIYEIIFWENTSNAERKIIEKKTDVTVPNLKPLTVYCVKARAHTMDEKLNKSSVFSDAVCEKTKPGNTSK

B1: AR2-22 (anti-AR2 chain scFv clone) (scFv, V domains shown)
VH: QVQLQQSGPELVRPGVSVKISCKGSGYRFTDYAIHWVKQSHAKSLEWIGVISTYYGNTRYNQKFKGKATMTVDKSSSTAYMELASLTSEDSVIYYCARSGGSLMDYWGQGTSVTVSS
VL: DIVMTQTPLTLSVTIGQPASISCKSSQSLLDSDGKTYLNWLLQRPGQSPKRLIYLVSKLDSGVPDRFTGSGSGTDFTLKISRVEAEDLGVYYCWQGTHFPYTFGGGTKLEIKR
notes: scFv fused to f1 phage gene 3 product on phage in the ELISA
B2: AR2-40 (anti-AR2 chain scFv clone) (scFv, V domains shown)
VH: QVQLQQSGPELVRPGVSVKISCKGSSYKFTDYAMHWVKQSHAKSLEWIGVISTYYGNVKYNQKFKGKATMTVDKSSSTAYMELARLTSEDSAVYYCARSSGSYLDYWGQGTSVTVSS
VL: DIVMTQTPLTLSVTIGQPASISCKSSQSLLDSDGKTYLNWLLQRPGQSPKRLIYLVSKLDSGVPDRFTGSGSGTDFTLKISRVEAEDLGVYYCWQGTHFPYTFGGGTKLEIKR
notes: as for B1
B3: AR2-43 (anti-AR2 chain scFv clone) (scFv, V domains shown)
VH: B1 VH with R28T, I34M, G56S, S85R, V92A, A97V, L103N
VL: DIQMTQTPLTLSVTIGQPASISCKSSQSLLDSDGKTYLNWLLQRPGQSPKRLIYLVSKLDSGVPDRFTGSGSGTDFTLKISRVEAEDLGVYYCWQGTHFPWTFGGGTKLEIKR
notes: as for B1
B4: AR2-14 (anti-AR2 chain scFv clone) (scFv, V domains shown)
VH: QVQLQQSGAELVRPGTSVKVSCKASGYAFTNYLIEWVKQRPGQGPEWIGVINPGSGNIRYNGKFKGKATLTADKSSSTAYMQLSSLTSDDSAVYFCARDAYYVGAMDYWGQGTSVTVSS
VL: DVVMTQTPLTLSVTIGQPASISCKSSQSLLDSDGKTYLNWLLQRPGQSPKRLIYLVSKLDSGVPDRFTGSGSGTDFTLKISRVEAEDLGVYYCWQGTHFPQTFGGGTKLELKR
notes: as for B1
B5: AR2-44 (anti-AR2 chain scFv clone) (scFv, V domains shown)
VH: QVQLQQSEAELVRPETSVKVSCKASGYSFRNYLIEWVKQRPGQGLEWIGVINPGSGNTKYNEKFKGKATLTADKSSSTAYMQLSSLTSDDSAVYFCARDGYYLGTMDYWGQGTSVTVSS
VL: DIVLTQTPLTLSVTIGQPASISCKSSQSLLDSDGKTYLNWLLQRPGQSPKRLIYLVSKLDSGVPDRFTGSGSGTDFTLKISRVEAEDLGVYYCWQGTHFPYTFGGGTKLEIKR
notes: as for B1
B6: AR2-33 (anti-AR2 chain scFv clone) (scFv, V domains shown)
VH: B5 VH with E8G, E15G, S28A, R30I, Y32N, K38Q, T58V, Y108H
VL: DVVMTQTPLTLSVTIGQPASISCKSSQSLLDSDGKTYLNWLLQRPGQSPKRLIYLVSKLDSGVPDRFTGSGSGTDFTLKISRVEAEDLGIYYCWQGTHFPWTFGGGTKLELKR
notes: as for B1
B7: AR2-31 (anti-AR2 chain scFv clone) (scFv, V domains shown)
VH: B2 VH with Q1E, S100Y
VL: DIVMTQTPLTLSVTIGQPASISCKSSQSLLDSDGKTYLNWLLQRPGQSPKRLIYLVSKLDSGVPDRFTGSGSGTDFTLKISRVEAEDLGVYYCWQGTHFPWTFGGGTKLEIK
notes: as for B1
B8: AR2-37 (anti-AR2 chain scFv clone) (scFv, V domains shown)
VH: QVQLQQSGPELVRPGVSVKISCKGSGYTFTDYAIHWVRQSHAQSLEWIGVIGTYSGNRNYNQKFKGKATMTVDKSSSTAYMELARLTSEDSAIYYCARSAGYSLDFWGQGTSVTVSS
VL: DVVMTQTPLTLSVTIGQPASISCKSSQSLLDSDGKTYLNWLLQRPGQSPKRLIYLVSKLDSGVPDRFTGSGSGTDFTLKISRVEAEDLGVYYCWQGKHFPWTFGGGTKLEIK
notes: as for B1
B9: AR2-13 (anti-AR2 chain scFv clone) (scFv, V domains shown)
VH: QVQLQQSGGELVRPGTSVKVSCKASGYAFTNYLIEWVKQRPGQGLDWIGMINPGSGGTKCNKKFKGKVTLTADKSSSTAYMHLSSLTSDDSAVYFCARSGWVSAMDYWGQGTSVTVSS
VL: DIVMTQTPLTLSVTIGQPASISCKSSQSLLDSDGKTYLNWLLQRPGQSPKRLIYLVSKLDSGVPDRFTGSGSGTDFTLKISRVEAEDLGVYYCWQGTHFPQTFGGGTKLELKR
notes: as for B1
B10: AR2-45 (anti-AR2 chain scFv clone) (scFv, V domains shown)
VH: B9 VH with G9V, S103Y
VL: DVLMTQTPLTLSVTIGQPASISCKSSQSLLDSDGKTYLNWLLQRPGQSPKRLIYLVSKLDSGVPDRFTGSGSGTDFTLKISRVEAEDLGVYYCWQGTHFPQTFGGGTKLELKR
notes: as for B1
B11: AR1-41 (anti-AR1 chain scFv clone) (scFv, V domains shown)
VH: QVQLKQSGAELVRPGASVRLSCKASGYTFTFYWINWIKQRPEQGLEWIGRIDPYDSETRYNQKFKDKAILTVDKYSSTAYMQLSSLTSEDSAVYYCAKGVYDGHWFFDVWGAGTSVTVSS
VL: DIVMTQSHKFMSTSVGDRVSITCKASQDVSTAVAWYQQKPGQSPKLLIYSASYRYTGVPARFSGSGSGTDFTFTISSVQTEDLAVYYCQQHYRTPPTFGGGTKLELKR
notes: In the phage ELISA it stood as a mouse scFv fused to the f1 phage gene 3 product on phage
B12: AR1-24 (anti-AR1 chain scFv clone) (scFv, V domains shown)
VH: QVQLQQSGPELEKPGASVKISCKASGYSFSDYNMNWVKQSNGKSLEWIGNIDPYNGDTNYNQKFKGKATLTLDKSSSTAYMQLKSLTSEDSAVYFCARSRGWLLPFAYWGQGTLVTVSA
VL: DILMTQSQKFMSTSVGDRVSVTCKASQNVGINVAWYQQKPGQSPKALIYSASYRYSGVPDRFTGSGSGTDFTLTISNVQSEDLAEYFCQQYNSYPLTFGGGTKLEIKR
notes: as for B1

Molecular target: T1, AR2FLAG (solubilized receptor: …)
Assay: phage ELISA, biotin-labeled AR2FLAG on streptavidin plates, anti-M13-HRP detection
Method: (§1) The single colonies described above were inoculated to 150 μl of 2×YTAG and cultured at 30° C. overnight. 51 μl of the cultures was inoculated to 500 μl of 2×YTAG, and incubated at 37° C. for two hours. Then 100 μl of 2×YTAG containing 2.5×10⁹ pfu of helper phage and 0.3 μl of 1 mol/l IPTG was added to the cultures, and allowed to stand at 37° C. for 30 minutes. The cultures were then incubated at 30° C. overnight, and their culture supernatant was subjected to ELISA. StreptaWell 96-well microtiter plates (Roche) were coated overnight with 100 μl of PBS containing 1.0 μg/ml biotin-labeled AR1FLAG or AR2FLAG The plates were washed with PBST to remove free antigens, and then blocked overnight with 200 μl of 2% M-PBS. 2% M-PBS was removed and the culture supernatant was added to the plates. The plates were allowed to stand for 40 minutes to bind with the antibodies. After the plates were washed, bound phages were detected using HRP-conjugated anti-M13 antibody (Amersham Pharmacia Biotech) diluted with 2% M-PBS and BM blue POD substrate (Roche). The reaction was stopped by adding sulfuric acid, and absorbance was determined at 450 nm.

Row | Binder | binding result
1 | B1 | binds
2 | B2 | binds
3 | B3 | binds
4 | B4 | binds
5 | B5 | binds
6 | B6 | binds
7 | B7 | binds
8 | B8 | binds
9 | B9 | binds
10 | B10 | binds

Molecular target: T2, AR1FLAG (solubilized receptor: …)
Assay: phage ELISA, biotin-labeled AR1FLAG on streptavidin plates, anti-M13-HRP detection
Method: as §1

Row | Binder | binding result
11 | B11 | binds
12 | B12 | binds
